Experimental data from US6358897B1, “Alkyl trypsin compositions and methods of use in contact lens cleaning and disinfecting systems” (Alcon Laboratories, Inc., priority 1996, dated 2002).

Tested on: azocasein
Experiment: Stability of Me-trypsin in the Example 2A composition, azocasein method
Assay type: physicochemical
Procedure: Azocasein Method The following solutions are used in this assay: 1) Buffer solution: 0.05 M sodium phosphate buffer containing 0.9% sodium chloride, pH 7.6. 2) Substrate solution: 2 mg/ml azocasein in the buffer solution mentioned above. The assay is initiated by mixing 1 ml of an appropriately diluted (such that the enzyme activity is in the range of standard curve) enzyme composition in phosphate buffer with 2 ml of azocasein substrate solution (2 mg/ml). After incubation at 37° C. for 20 minutes, the mixture is removed from the incubator and 1 ml of trichloroacetic acid to (14% w/v) is added to stop the enzyme reaction. The mixture is vortexed well and allowed to stand at room temperature for 20 minutes. After centrifuging at 2500 rpm (with a Beckman GS-6R Centrifuge) for 15 minutes, the supernatant is filtered with a serum sampler. 2 ml of the clear yellow filtrate is then adjusted to a neutral pH with 2 ml of 0.5 N sodium hydroxide and the absorbance of 440 nm wavelength light is measured with a spectrophotometer. The amount of azocasein hydrolyzed is calculated based on a standard curve of known concentrations of azocasein solution developed under identical conditions. An enzyme activity unit (“AZ U”) is defined as that amount of enzyme which hydrolyzes 1 μg of azocasein substrate/minute at 37° C. […] At the appointed time, aliquots were tested for enzyme activity by the azocasein method. Activity levels were compared with initial levels and expressed as percent remaining activity.

Substance: methyl trypsin [Me-Trypsin]
- Percent Remaining Activity (40° C., 1 week): 100%
- Percent Remaining Activity (40° C., 2 weeks): 100%
- Percent Remaining Activity (40° C., 4 weeks): 93.7%
- Percent Remaining Activity (40° C., 6 weeks): 100%
- Percent Remaining Activity (40° C., 8 weeks): 100%
- Percent Remaining Activity (40° C., 12 weeks): 100%
- Percent Remaining Activity (45° C., 1 week): 100%
- Percent Remaining Activity (45° C., 2 weeks): 100%
- Percent Remaining Activity (45° C., 4 weeks): 92.7%
- Percent Remaining Activity (45° C., 6 weeks): 97.8%
- Percent Remaining Activity (45° C., 8 weeks): 100%
- Percent Remaining Activity (45° C., 12 weeks): 97.6%
- Percent Remaining Activity (50° C., 1 week): 91.8%
- Percent Remaining Activity (50° C., 2 weeks): 91.8%
- Percent Remaining Activity (50° C., 4 weeks): 82.4%
- Percent Remaining Activity (50° C., 6 weeks): 81.3%
- Percent Remaining Activity (50° C., 8 weeks): 75.2%
- Percent Remaining Activity (50° C., 12 weeks): 71.5%
- Percent Remaining Activity (55° C., 1 week): 82.1%
- Percent Remaining Activity (55° C., 2 weeks): 75.3%
- Percent Remaining Activity (55° C., 4 weeks): 46.5%
- Percent Remaining Activity (RT, 1 week): 100%
- Percent Remaining Activity (RT, 2 weeks): 100%
- Percent Remaining Activity (RT, 4 weeks): 94.1%
- Percent Remaining Activity (RT, 6 weeks): 100%
- Percent Remaining Activity (RT, 8 weeks): 100%
- Percent Remaining Activity (RT, 12 weeks): 100%
